# How the values were obtained:
# Format in all cases: binding, cotton
# GhCOI1 = experiment: Yeast two hybrid with GhCOI1; conditions: in the presence of JA-Ile
# Procedure: (§1) The study on Arabidopsis had shown that the inhibition of JAZ protein on JA signaling was mainly achieved by inhibiting the transcription factor function of MYC, which had been experimentally verified by us in cotton. Based on the phylogenetic tree of Arabidopsis and cotton JAZs, we screened 6 cotton JAZs (GhJAZ1, GhJAZ7, GhJAZ9, GhJAZ10, GhJAZ11 and GhJAZ31), which were analyzed with GhMYC2, GhNINJA, GhTPL, GhHDA6, and GhCOI1 for yeast two hybrid. The amino acid sequence of GhJAZ1 was set forth in SEQ ID No. 4, and the corresponding encoding gene sequence was set forth in SEQ ID No. 39; the amino acid sequence of GhJAZ7 was set forth in SEQ ID No. 7, and the corresponding encoding gene sequence was set forth in SEQ ID No. 42; the amino acid sequence of GhJAZ9 was set forth in SEQ ID No. 2, and the corresponding encoding gene sequence was set forth in SEQ ID No. 37; the amino acid sequence of GhJAZ10 was set forth in SEQ ID No. 3, and the corresponding encoding gene sequence was set forth in SEQ ID No. 38; the amino acid sequence of GhJAZ11 was set forth in SEQ ID No. 5, and the corresponding encoding gene sequence was set forth in SEQ ID No. 40; and the amino acid sequence of GhJAZ31 was set forth in SEQ ID No. 9, and the corresponding encoding gene sequence was set forth in SEQ ID No. 44. The amino acid sequence of GhMYC2 was set forth in SEQ ID No. 71, and the corresponding encoding gene sequence was set forth in SEQ ID No. 72; the amino acid sequence of GhNINJA was set forth in SEQ ID No. 73, and the corresponding encoding gene sequence was set forth in SEQ ID No. 74; the amino acid sequence of GhTPL was set forth in SEQ ID No. 75, and the corresponding encoding gene sequence was set forth in SEQ ID No. 76; the amino acid sequence of GhHDA6 was set forth in SEQ ID No. 77, and the corresponding encoding gene sequence was set forth in SEQ ID No. 78; and the amino acid sequence of GhCOI1 was set forth in SEQ ID No. 79, and the corresponding encoding gene sequence was set forth in SEQ ID No. 80. […]
# GhHDA6 = experiment: Yeast two hybrid with GhHDA6
# Procedure: as §1, with “44.” for “44. The amino acid sequence of GhMYC2 was set forth in SEQ ID No. 71, and the corresponding encoding gene sequence was set forth in SEQ ID No. 72; the amino acid sequence of GhNINJA was set forth in SEQ ID No. 73, and the corresponding encoding gene sequence was set forth in SEQ ID No. 74; the amino acid sequence of GhTPL was set forth in SEQ ID No. 75, and the corresponding encoding gene sequence was set forth in SEQ ID No. 76; the amino acid sequence of GhHDA6 was set forth in SEQ ID No. 77, and the corresponding encoding gene sequence was set forth in SEQ ID No. 78; and the amino acid sequence of GhCOI1 was set forth in SEQ ID No. 79, and the corresponding encoding gene sequence was set forth in SEQ ID No. 80.”
# GhMYC2 = experiment: Yeast two hybrid with GhMYC2
# Procedure: as §1
# Chain of GhCOI1 (as listed by the source): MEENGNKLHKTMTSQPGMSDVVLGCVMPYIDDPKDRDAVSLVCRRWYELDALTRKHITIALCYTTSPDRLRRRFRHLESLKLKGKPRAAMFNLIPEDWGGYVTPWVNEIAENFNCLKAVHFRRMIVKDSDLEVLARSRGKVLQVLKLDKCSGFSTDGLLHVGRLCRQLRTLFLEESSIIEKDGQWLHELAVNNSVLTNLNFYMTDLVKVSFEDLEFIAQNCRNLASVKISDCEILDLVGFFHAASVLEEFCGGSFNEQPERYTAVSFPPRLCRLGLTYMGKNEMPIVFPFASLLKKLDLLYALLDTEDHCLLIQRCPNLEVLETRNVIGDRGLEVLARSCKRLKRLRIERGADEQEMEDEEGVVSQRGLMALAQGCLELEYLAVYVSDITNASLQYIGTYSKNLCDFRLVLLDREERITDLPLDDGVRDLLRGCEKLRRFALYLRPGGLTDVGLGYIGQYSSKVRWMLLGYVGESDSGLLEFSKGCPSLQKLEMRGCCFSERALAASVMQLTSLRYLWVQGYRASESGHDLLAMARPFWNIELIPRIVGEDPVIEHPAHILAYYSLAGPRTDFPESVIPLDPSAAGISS
# Chain of GhHDA6 (as listed by the source): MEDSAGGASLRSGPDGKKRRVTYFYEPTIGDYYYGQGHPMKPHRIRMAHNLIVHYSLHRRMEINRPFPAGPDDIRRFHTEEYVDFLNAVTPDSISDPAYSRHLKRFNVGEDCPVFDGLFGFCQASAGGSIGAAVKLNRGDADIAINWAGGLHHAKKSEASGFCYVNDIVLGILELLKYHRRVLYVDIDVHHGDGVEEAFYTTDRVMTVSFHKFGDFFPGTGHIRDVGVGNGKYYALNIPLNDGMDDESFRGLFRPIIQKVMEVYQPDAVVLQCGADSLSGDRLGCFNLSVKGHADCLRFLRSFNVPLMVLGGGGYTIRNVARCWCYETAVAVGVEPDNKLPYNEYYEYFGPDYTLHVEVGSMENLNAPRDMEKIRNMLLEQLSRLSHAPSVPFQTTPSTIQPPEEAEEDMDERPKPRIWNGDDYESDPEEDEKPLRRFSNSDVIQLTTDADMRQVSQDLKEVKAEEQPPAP
# Chain of GhMYC2 (as listed by the source): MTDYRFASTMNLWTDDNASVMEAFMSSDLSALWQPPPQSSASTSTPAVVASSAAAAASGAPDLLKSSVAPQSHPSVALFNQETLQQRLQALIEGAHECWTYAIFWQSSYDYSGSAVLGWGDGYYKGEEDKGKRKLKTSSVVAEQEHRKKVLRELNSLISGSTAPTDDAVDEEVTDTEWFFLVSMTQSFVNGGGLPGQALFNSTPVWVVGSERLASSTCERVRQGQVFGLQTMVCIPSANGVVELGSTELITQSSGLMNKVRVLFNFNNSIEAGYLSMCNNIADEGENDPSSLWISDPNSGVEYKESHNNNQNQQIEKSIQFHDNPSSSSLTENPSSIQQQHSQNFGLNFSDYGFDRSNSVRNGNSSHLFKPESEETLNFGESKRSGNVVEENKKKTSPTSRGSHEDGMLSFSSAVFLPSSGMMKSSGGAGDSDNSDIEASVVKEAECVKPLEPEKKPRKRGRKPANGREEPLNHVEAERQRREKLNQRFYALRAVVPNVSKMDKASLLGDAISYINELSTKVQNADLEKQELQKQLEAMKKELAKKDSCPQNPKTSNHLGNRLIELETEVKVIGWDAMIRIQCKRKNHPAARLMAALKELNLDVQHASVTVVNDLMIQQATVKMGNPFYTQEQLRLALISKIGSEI
Molecule,interaction with GhCOI1 (GhCOI1),interaction with GhHDA6 (GhHDA6),interaction with GhMYC2 (GhMYC2)
"GhJAZ1: cotton JAZ1 protein, gene number Gh_A05G0260, sequence SEQ ID No. 4; prokaryotically expressed with His tag, about 30 KD (protein, His tag, prokaryotically expressed with His tag, about 30 KD) MSSCSESTAMKPARSPEKPSFAQTCNLLSQYLKEKGSFGDLSLGMTCNVEANGTPVVPPPTMNLFPLNDKSDDVCGRNGGNPKNLTSMDLFPQQAGLASKDDSPNKLEPQTAPMTIFYGGQVIVFNDFPANKAKEIMLLASNSSSQSNNSFNPIPFTSSIARSPIESSIGVPPTSKPVHPAQRAVPGDLPIARRASLHRFLEKRKDRITAKAPYQINNSAAAPSLSGDNKSWLGLAAQSP",interacted,interacted,strong
"GhJAZ1 after deletion of NT domain: GhJAZ1 mutant with NT domain deleted, protein sequence SEQ ID No. 83 (protein) MSSCSESTAMKPARSPEANGTPVVPPPTMNLFPLNDKSDDVCGRNGGNPKNLTSMDLFPQQAGLASKDDSPNKLEPQTAPMTIFYGGQVIVFNDFPANKAKEIMLLASNSSSQSNNSFNPIPFTSSIARSPIESSIGVPPTSKPVHPAQRAVPGDLPIARRASLHRFLEKRKDRITAKAPYQINNSAAAPSLSGDNKSWLGLAAQSP",significantly weakened,significantly weakened,significantly weakened

# Reference: patent US20240279288A1, “APPLICATION OF PLANT JAZ PROTEINS AND DERIVED POLYPEPTIDES IN PREVENTION AND TREATMENT OF HUMAN AND ANIMAL TUMORS” (ANYANG INSTITUTE OF SINO-COTTON INDUSTRY INNOVATION, priority 2021, published 2024)
